Experimental data published in paper PMC6336407.

Columns and labels:
[1] = target: IRE1-KR43 labeled with RED dye (human); assay: MST; 100 nM IRE1-KR43 labeled with RED dye incubated with 80S at various concentrations for 30 min at 25°C; Monolith NT.115, 20% LED power, 40% IR-laser
[2] = target: IRE1 KR with N-terminal 6× His-tag (human); assay: BLI; His-tagged IRE1 KR coupled to Ni-NTA biosensors; 80S or 60S at 5 to 500 nM in solution; 25°C, 25 mM HEPES pH 7.4, 150 mM KCl, 5 mM MgCl2, 250 µM TCEP; OCTET RED384

Kd [1]: 30 nM | Kd [2]: 33.4 nM | koff [2]: 0.0598 s⁻¹ | kon [2]: 1.81e+06 M⁻¹ s⁻¹
Substance: purified 80S ribosomes (complex)
